Results taken from article PMC12704761, “RAD51AP1 is a versatile RAD51 modulator” (Proceedings of the National Academy of Sciences of the …, 2025).
Substitutions are numbered along the chain they refer to. Names may count otherwise.

T1: RAD51AP1 (RAD51 associated protein 1), full-length wild type (UniProt Q96B01 1-352)
T1 construct: RAD51AP1, synthetic gene from Invitrogen; printed residue numbers (H346); One of PDB 9QN8, 9QNA, 9QNB, 9QNC holds its modelled residues; Detailed protocols are in SI Appendix, Supplementary Methods; also called WT; source: expressed from a pET28 vector, purified (HisTrap, HiTrap Heparin, HiTrap Q, gel filtration); not shown: His6, C-terminal, kept
T1 sequence (looked up): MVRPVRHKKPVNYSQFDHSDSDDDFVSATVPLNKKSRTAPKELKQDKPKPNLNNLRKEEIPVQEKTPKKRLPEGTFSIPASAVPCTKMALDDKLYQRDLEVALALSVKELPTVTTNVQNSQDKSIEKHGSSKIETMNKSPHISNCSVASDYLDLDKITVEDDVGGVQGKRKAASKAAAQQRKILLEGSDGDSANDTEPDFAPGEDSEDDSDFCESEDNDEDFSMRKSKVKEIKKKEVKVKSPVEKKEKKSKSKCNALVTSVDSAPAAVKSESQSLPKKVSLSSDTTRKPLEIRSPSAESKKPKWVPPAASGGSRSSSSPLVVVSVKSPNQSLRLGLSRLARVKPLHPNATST

T2: RAD51AP1-H346A (Site-C mutant), full-length (UniProt Q96B01 1-352, H346A)
T2 construct: RAD51AP1 with H346A; source: expressed from a pET28 vector, purified (HisTrap, HiTrap Heparin, HiTrap Q, gel filtration); not shown: His6, C-terminal, kept
T2 sequence (looked up): T1 sequence (looked up) with H346A

T3: RAD51AP1 Site-NC double mutant, full-length (UniProt Q96B01 1-352, K300 to alanine | K303 to alanine | W304 to alanine | P306 to alanine | P307 to …)
T3 construct: RAD51AP1 in which both Site-N (K300, K303, W304, P306, P307 to alanine) and Site-C (H346A) are mutated; also called Site-N and Site-C double mutant; source: expressed from a pET28 vector, purified (HisTrap, HiTrap Heparin, HiTrap Q, gel filtration); not shown: His6, C-terminal, kept
T3 sequence (looked up): T1 sequence (looked up) with K300A, K303A, W304A, P306A, P307A, H346A

T4: RAD51AP1 Site-N mutant, full-length (UniProt Q96B01 1-352, K300 to alanine | K303 to alanine | W304 to alanine | P306 to alanine | P307 to …)
T4 construct: RAD51AP1 with five conserved Site-N residues (K300, K303, W304, P306, P307) mutated to alanine; source: expressed from a pET28 vector, purified (HisTrap, HiTrap Heparin, HiTrap Q, gel filtration); not shown: His6, C-terminal, kept
T4 sequence (looked up): T1 sequence (looked up) with K300A, K303A, W304A, P306A, P307A

T5: RAD51 recombinase, Q06609
T5 chain: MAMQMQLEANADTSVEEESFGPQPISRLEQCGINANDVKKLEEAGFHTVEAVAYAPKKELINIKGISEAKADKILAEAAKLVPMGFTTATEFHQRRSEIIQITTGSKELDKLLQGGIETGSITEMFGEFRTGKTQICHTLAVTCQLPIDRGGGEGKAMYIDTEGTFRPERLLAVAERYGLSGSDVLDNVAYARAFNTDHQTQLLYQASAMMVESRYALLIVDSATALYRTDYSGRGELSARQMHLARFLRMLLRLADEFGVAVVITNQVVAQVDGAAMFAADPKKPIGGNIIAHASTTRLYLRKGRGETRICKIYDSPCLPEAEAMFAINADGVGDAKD

B1: RAD51 recombinase (natural protein)
chain: T5 chain
notes: RAD51 recombinase, wild type; expressed from the pCH1-derived plasmid pJ9; In the cryo-EM samples it stood as a filament on ssDNA with Ca2+-ATP, Mg2+-ATP or Mg2+-ADP; the introduction speaks of the human genome and the discussion sets 'mouse proteins' of earlier work apart; source: E. coli BL21 (DE3), coexpressed with His-MBP-BRC4 and GroEL, purified (HisTrap, HiTrap Heparin, HiTrap Q)
B2: RAD51AP1 C29 (domain or fragment, UniProt Q96B01 324-352, looked up)
chain: SVKSPNQSLRLGLSRLARVKPLHPNATST
notes: RAD51AP1, C-terminal 29 residues; lacks Site-N, contains Site-M and Site-C; One of PDB 9QN8, 9QNA, 9QNB, 9QNC holds it; also called RAD51AP1 C29 fragment; RAD51AP1 C-terminal domain
B3: RAD51AP1 C59, wild type K300A; K303A; W304A; P306A; P307A (protein)
chain: SPSAESAKPAAVAAAASGGSRSSSSPLVVVSVKSPNQSLRLGLSRLARVKPLHPNATST

What was measured:
[1] = target: T1, RAD51AP1 (RAD51 associated protein 1), …; assay: BLI; RAD51AP1 with C-terminal hexahistidine tag on nickel-NTA biosensors, RAD51 2.5 µM to 39 nM, Octet Red, 25 °C, Kd from response against concentration, 1:1 model; conditions: both partners purified
[2] = target: T2, RAD51AP1-H346A (Site-C mutant), …; assay: as above; conditions: both partners purified
[3] = target: T3, RAD51AP1 Site-NC double mutant, …; assay: as above; conditions: both partners purified
[4] = target: T4, RAD51AP1 Site-N mutant, full-length; assay: pull-down; His-tagged full-length RAD51AP1 (1 µM) immobilised on magnetic cobalt resin, RAD51 (1 µM) in pull-down buffer with ATP and Mg2+, 37 °C, 5 min; SDS-PAGE of supernatant and eluate; conditions: both partners purified
[5] = target: B1; assay: cryo-EM structure; RAD51-ssDNA filaments formed with Mg2+-ATP (7 µM RAD51) mixed with C29 (28 µM); single particle analysis, 3.0 Å; conditions: both partners purified
[6] = target: T5, RAD51 recombinase, Q06609; assay: pull-down; conditions: chain shown with the change; n = 3; parent: est. 54; read off a plot

Binder: B1
- Kd [1]: ~600 nM
- fold decrease in binding affinity against wild-type RAD51AP1 [2]: ~2.5 fold
- fold reduction in affinity against wild-type RAD51AP1 [3]: ~4 fold
- binding result [4]: binds

Binder: B2
- binding result [5]: binds

Binder: B3
- response [6]: 60%
